Data on one protein can be found in article PMC1847684, “Isolation and functional characterization of a cDNA coding a hydroxycinnamoyltransferase involved in phenylpropanoid biosynthesis in Cynara cardunculus L” (BMC Plant Biology, 2007).

Assay in all cases: HPLC product assay, Lineweaver-Burk
Type in all cases: biochemical, Cynara cardunculus

Substrate in data set [1]: CC(C)(COP(=O)(O)OP(=O)(O)OC[C@H]1O[C@@H](n2cnc3c(N)ncnc32)[C@H](O)[C@@H]1OP(=O)(O)O)[C@@H](O)C(=O)NCCC(=O)NCCSC(=O)/C=C/c1ccc(O)c(O)c1
The following applies: 20 mM quinate as acceptor, sodium phosphate pH 7.5, 1 mM DTT, 30 C. An excerpt: (§1) HPLC product assay, Lineweaver-Burk on HCT (globe artichoke hydroxycinnamoyltransferase; CcHCT)

Substrate in data set [2]: CC(C)(COP(=O)(O)OP(=O)(O)OC[C@H]1O[C@@H](n2cnc3c(N)ncnc32)[C@H](O)[C@@H]1OP(=O)(O)O)[C@@H](O)C(=O)NCCC(=O)NCCSC(=O)/C=C/c1ccc(O)cc1
The following applies: 20 mM quinate as acceptor, sodium phosphate pH 7.5, 1 mM DTT, 30 C, recombinant bacterial extract (discussion says purified, no purification described).
Description: as §1

Substrate in data set [3]: O=C(O)[C@]1(O)C[C@@H](O)[C@@H](O)[C@H](O)C1
The following applies: 300 μM p-coumaroyl-CoA as donor, sodium phosphate pH 7.5, 1 mM DTT, 30 C.
Description: as §1

B1: HCT (globe artichoke hydroxycinnamoyltransferase; CcHCT) (Cynara cardunculus) (protein)
chain: MKIEVRESTMVRPAEETPRINLWNSNVDLVVPNFHTPSVYFYRPNGAANFFDPKVMKDALSRALVPFYPMGGRLKRDEDGRIEIDCQGQGVLFVEAESDGVIDDFGDFAPTLELRKLIPAVDYTLGIESYSLLVLQVTYFKCGGVSLGVGMQHHAADGASGLHFINTWSDLARGLDLAVPPFIDRTLLRSRDPPQPAFDHIEYQPAPPMKTAPTPTPTDDESVPETTVSIFKLTRDQVNALKGKSKEDGNTVNYSSYEMLSGHVWRCVCKARGLPDDQDTKLYIATDGRARLRPSLPRGYFGNVIFTTTPIAVAGDLQSKPTWYAASKIHDALARMDDDYLKSALDYLELQPDLKALVRGAHTFKCPNLGITSWARLPIHDADFGWGRPIFMGPGGIAYEGLSFVLPSPINDGSLSIVISLQAEHMKLFSKFLYDI
notes: full-length ORF (1308 bp, 436 residues printed, ~50 kDa), pET3a NdeI/BamHI, no tag mentioned, E. coli BL21(DE3) pLysE at 28 C
In general, Km refers to the concentration of substrate that gives half-maximal velocity. Usually Vmax stands for the top rate of the reaction or transport when substrate is in excess. As for B1, in data set [1], the Michaelis constant (Km) came out at 61.75 ± 0.004 µM, the maximal velocity (Vmax) stood at 0.0402 µmol/min/mg and the Vmax/Km amounted to 600 µL/min/mg. In data set [2], the Km is 53.0 ± 13.0 µM, the maximal velocity (Vmax) came out at 0.132 µmol/min/mg and the Vmax/Km was 2460 µL/min/mg. In data set [3], the Km amounted to 9200 ± 5600 µM, the maximum rate (Vmax) is 0.126 µmol/min/mg and the Vmax/Km was 12 µL/min/mg.
